The source of these data is article PMC6426841, “Reversible histone glycation is associated with disease-related changes in chromatin architecture” (Nature Communications, 2019).

The assay concerns the target T1, recombinant His6-tagged wild-type DJ-1 (UniProt Q99497 1-189).
T1 construct: DJ-1 (PARK7), wild type, expressed from the plasmid pET3a-His-DJ1; No removal of the His6 tag is described; The plasmid pET3a-His-DJ1 (Addgene 51488) tells the exact construct; also called PARK7; recombinant DJ-1; source: E. coli Rosetta (DE3), purified (Ni2+-NTA agarose, desalting)
T1 sequence (looked up): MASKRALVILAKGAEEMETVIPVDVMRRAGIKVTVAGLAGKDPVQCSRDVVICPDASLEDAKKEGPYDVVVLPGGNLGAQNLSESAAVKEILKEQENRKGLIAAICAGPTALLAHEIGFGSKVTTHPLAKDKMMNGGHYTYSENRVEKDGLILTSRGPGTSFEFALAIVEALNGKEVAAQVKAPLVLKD
The assay is described as follows: pull-down; biotinylated H3 (1-18) peptide, glycated or not, incubated with recombinant DJ-1 at 4 °C for 2 h; peptide pulled down on BSA-blocked streptavidin magnetic beads, washed 3 times with 1x PBS pH 7.4, boiled; western blot with anti-DJ-1. Particulars: both partners purified. A general note: Immunoblotting shows a protein as a band on a membrane.

Ends that are not written are not given here.

B1: glycated (MGO-treated) biotinylated H3 N-terminal tail peptide (residues 1-18) (peptide, UniProt Q71DI3 2-19, looked up)
peptide: ARTKQTARKSTGGKAPRK
modifications: not fully specified (N-terminus, C-terminus); also: MGO glycation adducts, sites not given here
notes: histone H3 N-terminal tail, residues 1-18; The methods speak of 'N-terminal biotinylated H3 peptides', the results of a C-terminal biotin; also called glycated H3 tail; glycated biotin-H3 tail; source: synthetic peptide (Fmoc-SPPS, RP-HPLC purified), treated with MGO at 1:3 peptide:MGO, 37 °C, 30 min; not shown: biotin, C-terminal, kept
As to B1, the binding result was “binds”.
